Measurements: paper PMC11115230, “Mitotic deacetylase complex (MiDAC) recognizes the HIV-1 core promoter to control activated viral gene expression”

Tests used:
[1] = molecular target: T1, DNTTIP1 (TdIF1), His-tagged (human, UniProt Q9H147 1-329); assay: fluorescence anisotropy; Hill n 1.89; error = fit SE x15; Anisotropy: 15 nM DNA, 10 mM Na-PO4 pH 6.5, 150 mM KCl, 250 uM TCEP, 5% glycerol. Pull-down: 20 mM HEPES pH 7.9, 100 mM KCl, 10% glycerol, 0.05% CHAPS, poly(dIdC), oligo B, acetylated BSA, room temperature; details: protein: recombinant; tags: N-term 6xHis; chain copies: 2; label: fluorescein on first T of sense strand (anisotropy only); blunt
T1 sequence: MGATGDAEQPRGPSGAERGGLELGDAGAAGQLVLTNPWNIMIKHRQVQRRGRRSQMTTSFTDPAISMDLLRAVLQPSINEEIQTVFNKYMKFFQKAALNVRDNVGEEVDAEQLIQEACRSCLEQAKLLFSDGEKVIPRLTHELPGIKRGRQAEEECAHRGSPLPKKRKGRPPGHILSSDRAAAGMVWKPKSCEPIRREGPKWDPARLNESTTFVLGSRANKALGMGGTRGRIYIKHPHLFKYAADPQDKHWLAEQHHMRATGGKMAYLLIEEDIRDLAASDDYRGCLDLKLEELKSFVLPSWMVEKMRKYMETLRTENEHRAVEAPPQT

[2] = molecular target: T1, DNTTIP1 (TdIF1), His-tagged; assay: equimolar DNA; Tm 32.7 to 43.5 C; unit inferred, M assumed; Anisotropy: 15 nM DNA, 10 mM Na-PO4 pH 6.5, 150 mM KCl, 250 uM TCEP, 5% glycerol. Pull-down: 20 mM HEPES pH 7.9, 100 mM KCl, 10% glycerol, 0.05% CHAPS, poly(dIdC), oligo B, acetylated BSA, room temperature; details: protein: recombinant; tags: N-term 6xHis; chain copies: 2; label: fluorescein on first T of sense strand (anisotropy only); blunt
[3] = molecular target: T1, DNTTIP1 (TdIF1), His-tagged; assay: equimolar DNA; Tm 39.2 C; unit inferred, M assumed; Anisotropy: 15 nM DNA, 10 mM Na-PO4 pH 6.5, 150 mM KCl, 250 uM TCEP, 5% glycerol. Pull-down: 20 mM HEPES pH 7.9, 100 mM KCl, 10% glycerol, 0.05% CHAPS, poly(dIdC), oligo B, acetylated BSA, room temperature; details: protein: recombinant; tags: N-term 6xHis; chain copies: 2; label: fluorescein on first T of sense strand (anisotropy only); blunt
[4] = molecular target: T1, DNTTIP1 (TdIF1), His-tagged; assay: fluorescence anisotropy; Hill n 1.63; error = fit SE x15; Anisotropy: 15 nM DNA, 10 mM Na-PO4 pH 6.5, 150 mM KCl, 250 uM TCEP, 5% glycerol. Pull-down: 20 mM HEPES pH 7.9, 100 mM KCl, 10% glycerol, 0.05% CHAPS, poly(dIdC), oligo B, acetylated BSA, room temperature; details: protein: recombinant; tags: N-term 6xHis; chain copies: 2; label: fluorescein on first T of sense strand (anisotropy only); blunt
[5] = molecular target: T1, DNTTIP1 (TdIF1), His-tagged; assay: fluorescence anisotropy; Hill n 2.39; error = fit SE x15; Anisotropy: 15 nM DNA, 10 mM Na-PO4 pH 6.5, 150 mM KCl, 250 uM TCEP, 5% glycerol. Pull-down: 20 mM HEPES pH 7.9, 100 mM KCl, 10% glycerol, 0.05% CHAPS, poly(dIdC), oligo B, acetylated BSA, room temperature; details: protein: recombinant; tags: N-term 6xHis; chain copies: 2; label: fluorescein on first T of sense strand; blunt
[6] = molecular target: T1, DNTTIP1 (TdIF1), His-tagged; assay: fluorescence anisotropy; Hill n 1.78; error = fit SE x15; Anisotropy: 15 nM DNA, 10 mM Na-PO4 pH 6.5, 150 mM KCl, 250 uM TCEP, 5% glycerol. Pull-down: 20 mM HEPES pH 7.9, 100 mM KCl, 10% glycerol, 0.05% CHAPS, poly(dIdC), oligo B, acetylated BSA, room temperature; details: protein: recombinant; tags: N-term 6xHis; chain copies: 2; label: fluorescein on first T of sense strand; blunt
[7] = molecular target: T1, DNTTIP1 (TdIF1), His-tagged; assay: CD thermal denaturation; equimolar DNA; unit inferred, M assumed; Anisotropy: 15 nM DNA, 10 mM Na-PO4 pH 6.5, 150 mM KCl, 250 uM TCEP, 5% glycerol. Pull-down: 20 mM HEPES pH 7.9, 100 mM KCl, 10% glycerol, 0.05% CHAPS, poly(dIdC), oligo B, acetylated BSA, room temperature; details: protein: recombinant; tags: N-term 6xHis; chain copies: 2; blunt

B1: TASHET_25 wt (dsDNA)
DNA 1: AGATGCTGCATATAAGCAGCTGCTT
DNA 2: AAGCAGCTGCTTATATGCAGCATCT
Which Kd [1] does the source give for B1 here?
The Kd was 51.1 ± 4.2 nM.

What about the Kd [2] of the same binder?
Its Kd is ~0.392 nM.

B2: ATCC_25 (dsDNA)
DNA 1: AGATGATCCATATAAGGATATCCTT
DNA 2: AAGGATATCCTTATATGGATCATCT
Which Kd [3] does the source give for B2 here?
The Kd was ~791 nM.

What about the Kd [4] of the same binder?
Its Kd is 137 ± 16.6 nM.

B3: CATAKO_25 (dsDNA)
DNA 1: AGATGCTGAGAGCTCGCAGCTGCTT
DNA 2: AAGCAGCTGCGAGCTCTCAGCATCT
B3 was tested. Which Kd [5] did it give?
Its Kd is 117 ± 15.6 nM.

B4: Scr_25 (dsDNA)
DNA 1: AGATCAGCAGAGCTCTGGTAGCTAT
DNA 2: ATAGCTACCAGAGCTCTGCTGATCT
How did the Kd [6] turn out when B4 was run?
Its Kd is 156 ± 15.6 nM.

B5: DNTTIP_cons (dsDNA)
DNA 1: CGCCAAATAAAAGTTGCATGGTCG
DNA 2: CGACCATGCAACTTTTATTTGGCG
For B5, which Kd [7] is on record?
Its Kd is ~7.38 nM.
